Holding throughout (conditions): both partners purified
For assay [1], the target named is T1, biotinylated HLA-DM ectodomain (human, UniProt P28067 27-233; P28068 19-218, biotin on the C-terminal avitag (BirA); which chain carries the avitag is not stated).
T1 construct: HLA-DM alpha chain, human, ectodomain; HLA-DM beta chain, human, ectodomain; Alpha/beta heterodimer; The supplement says only that avitag and flag-tag stand at a C-terminus; they are written on the beta chain for want of a statement; A KT3-tag at the C-terminus of recombinant DM beta is named in the western blot methods (D1:p7); also called bio-DM; sDM-Avi
T1 sequence (P28067 27-233, chain 1 of 2): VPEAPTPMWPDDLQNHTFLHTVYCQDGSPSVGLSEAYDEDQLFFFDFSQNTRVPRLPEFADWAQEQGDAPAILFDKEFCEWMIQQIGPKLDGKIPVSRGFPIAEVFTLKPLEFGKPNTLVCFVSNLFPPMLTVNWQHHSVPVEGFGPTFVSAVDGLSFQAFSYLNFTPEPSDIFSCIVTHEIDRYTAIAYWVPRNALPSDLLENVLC
T1 sequence (P28068 19-218, chain 2 of 2): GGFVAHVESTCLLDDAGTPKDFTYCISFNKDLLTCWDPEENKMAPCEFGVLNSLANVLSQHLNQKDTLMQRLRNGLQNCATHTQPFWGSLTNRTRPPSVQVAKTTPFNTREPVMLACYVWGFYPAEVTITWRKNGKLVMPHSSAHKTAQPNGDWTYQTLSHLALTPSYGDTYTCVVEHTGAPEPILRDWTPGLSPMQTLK
The experiment in a line: SPR; BIAcore, 25 C, pH 6.3 (running buffer pH 6.26); biotinylated DM on a streptavidin chip, untreated DOv injected; 80 mM citrate-phosphate, 150 mM NaCl, 0.06% BSA, 0.05% P20; apparent KD from fitted equilibrium RU.

Assay [2] concerns the target T1, biotinylated HLA-DM ectodomain. The experiment in a line: SPR; BIAcore, 37 C, pH 6.3; biotinylated DM on a streptavidin chip, DOv injected; 80 mM citrate-phosphate, 150 mM NaCl, 0.06% BSA, 0.05% P20; apparent KD from fitted equilibrium RU. A general note: In SPR one partner is held on a chip, and binding of the other changes the refractive index at the surface.
Assay [3] shares this target. The experiment in a line: SPR; BIAcore, 25 C, pH 7.2 (running buffer pH 7.16); biotinylated DM (120-130 RU) on a streptavidin chip, DOv injected; 80 mM citrate-phosphate, 150 mM NaCl, 0.06% BSA, 0.05% P20; apparent KD from fitted equilibrium RU (slow dissociation model).
For assay [4] the target is unchanged. The experiment in a line: SPR; BIAcore, 25 C, pH 4.85; biotinylated DM on a streptavidin chip, DOv injected; 80 mM citrate-phosphate, 150 mM NaCl, 0.06% BSA, 0.05% P20; apparent KD from fitted equilibrium RU.
Assay [5] shares this target. The experiment in a line: SPR; BIAcore, 37 C, pH 4.85; biotinylated DM on a streptavidin chip, DOv injected; 80 mM citrate-phosphate, 150 mM NaCl, 0.06% BSA, 0.05% P20; apparent KD from fitted equilibrium RU.
Assay [6] has the same target. The experiment in a line: SPR; BIAcore, 25 C, pH 5.5 (running buffer pH 5.49); biotinylated DM on a streptavidin chip, DOv injected; 80 mM citrate-phosphate, 150 mM NaCl, 0.06% BSA, 0.05% P20; apparent KD from fitted equilibrium RU.
Assay [7] shares this target. The experiment in a line: SPR; BIAcore, 25 C, pH 6.3; biotinylated DM on a streptavidin chip; analyte: intact DOv SEC-purified after a pH 4.6 pulse (37 C, 8 min); apparent KD from fitted equilibrium RU.
The target of assay [8] is T2, biotinylated DM (soluble HLA-DM, SPR ligand) (human, UniProt P28067 27-233; P28068 19-218, biotin (chain and site not stated) | biotin (chain and site not stated)).
T2 construct: HLA-DM alpha chain, ectodomain; HLA-DM beta chain, ectodomain; captured on a streptavidin chip; also called immobilized DM; source: recombinant, purified
T2 sequence (P28067 27-233, chain 1 of 2): as the sequence (P28067 27-233, chain 1 of 2) above
T2 sequence (P28068 19-218, chain 2 of 2): as the sequence (P28068 19-218, chain 2 of 2) above
The experiment in a line: SPR; BIAcore; 120–130 RU biotinylated DM on a streptavidin chip, DOv injected (Kinject, 30 μl/min, 5 min); 80 mM citrate-phosphate, 150 mM NaCl, 0.06% BSA, 0.05% P20, pH 4.85, 5.49, 6.26, 7.16; 25 °C or 37 °C; single cycle mode at pH 4.85 with >4 h dissociation; apparent constants (slow dissociation model).

In assay [9] the target is T3, HLA-DM ectodomain of the DM-DOwt complex (human, UniProt P28067 27-233; P28068 19-218).
T3 construct: HLA-DM alpha chain, ectodomain; HLA-DM beta chain, ectodomain; For BLI the DM-DOwt complex was biotinylated; also called DM (in DM-DOwt); DM-DO ectodomains; source: recombinant, purified in complex with DOwt (double SEC-purified DM-DO ectodomains)
T3 sequence (P28067 27-233, chain 1 of 2): as the sequence (P28067 27-233, chain 1 of 2) above
T3 sequence (P28068 19-218, chain 2 of 2): as the sequence (P28068 19-218, chain 2 of 2) above
The experiment in a line: SEC; DM-DOwt ectodomains incubated at pH 4.6, 5.4 or 6.3 for the indicated times (4 h, 24 h) or not treated, separated by size exclusion chromatography; fractions western blotted with DO- or DM-specific antibodies. Background: SEC sorts molecules by how far they enter the pores of the column.

Assay [10] has as its target T4, soluble HLA-DM ectodomain (human, UniProt P28067 27-233; P28068 19-218).
T4 construct: HLA-DM alpha chain, human, ectodomain; HLA-DM beta chain, human, ectodomain; The analyte of the BLI experiments, not biotinylated; also called sDM; soluble DM
The experiment in a line: BLI; Octet QK, 25 C as the table's head says, pH 5.5 (50 mM citrate, 150 mM NaCl, 0.01% BSA, 0.002% Tween 20); biotinylated DOv on streptavidin biosensors, soluble DM 6.25-1600 nM; apparent KD from fitted equilibrium wavelength shifts. (In BLI a coated tip is dipped into the sample, and binding shifts an interference pattern.)

Assay [11] deals with T4, soluble HLA-DM ectodomain. The experiment in a line: BLI; Octet QK, 25 C as the table's head says, table row pH 4.85 (kinetic buffer 50 mM acetate pH 4.7, 150 mM NaCl, 0.01% BSA, 0.002% Tween 20); biotinylated DOv on streptavidin biosensors, soluble DM 6.25-1600 nM; apparent KD from fitted equilibrium wavelength shifts.
The target of assay [12] is T4, soluble HLA-DM ectodomain. The experiment in a line: BLI; Octet QK, 25 C as the table's head says, pH 6.3 (50 mM MES, 150 mM NaCl, 0.01% BSA, 0.002% Tween 20); biotinylated DOv on streptavidin biosensors, soluble DM 6.25-1600 nM; apparent KD from fitted equilibrium wavelength shifts.
Assay [13] addresses T4, soluble HLA-DM ectodomain. The experiment in a line: BLI; Octet QK, 25 C as the table's head says, table row pH 7.2 (kinetic buffer 50 mM HEPES pH 7.4, 150 mM NaCl, 0.01% BSA, 0.002% Tween 20); biotinylated DOv on streptavidin biosensors, soluble DM 6.25-1600 nM; apparent KD from fitted equilibrium wavelength shifts.

T4 sequence (P28067 27-233, chain 1 of 2): as the sequence (P28067 27-233, chain 1 of 2) above
T4 sequence (P28068 19-218, chain 2 of 2): as the sequence (P28068 19-218, chain 2 of 2) above

B1: stabilized HLA-DO variant ectodomain (alpha P11A) (domain or fragment, human)
MHC II alpha: TKADHMGSYGAAFYQSYGASGQFTHEFDEEQLFSVDLKKSEAVWRLPEFGDFARFDPQGGLAGIAAIKAHLDILVERSNRSRAINVPPRVTVLPKSRVELGQPNILICIVDNIFPPVINITWLRNGQTVTEGVAQTSFYSQPDHLFRKFHYLPFVPSAEDVYDCQVEHWGLDAPLLRHWELQVPIPPPDAME
MHC II beta: TDSPEDFVIQAKADCYFTNGTEKVQFVVRFIFNLEEYVRFDSDVGMFVALTKLGQPDAEQWNSRLDLLERSRQAVDGVCRHNYRLGAPFTVGRKVQPEVTVYPERTPLLHQHNLLHCSVTGFYPGDIKIKWFLNGQEERAGVMSTGPIRNGDWTFQTVVMLEMTPELGHVYTCLVDHSSLLSPVSVEWRAQSEYSWRK
notes: HLA-DO alpha chain, human, ectodomain; HLA-DO beta chain, human, ectodomain; Alpha/beta heterodimer, not biotinylated when used as SPR analyte; The avitag is said to stand at the C-terminus of recombinant DO beta (D1:p7); The 'sz' of the cell line's name may mean leucine zippers; In one experiment the intact fraction after a pH 4.6 pulse (37 C, 8 min, SEC 12-13 ml) was used; also called szDOv-Avi
With B1, the Kd in [1] stood at 14.1 nM; in assay [2], 12.6 nM; in assay [3], 9.4 nM; in [4], 148 nM; in assay [5], 240 nM; in assay [6], 21.9 nM. Further, the Kd in assay [7] worked out at 27.5 nM.

B2: stabilized HLA-DO variant (DOv), ectodomain with αP11A (complex, human)
MHC II alpha: TKADHMGSYGAAFYQSYGASGQFTHEFDEEQLFSVDLKKSEAVWRLPEFGDFARFDPQGGLAGIAAIKAHLDILVERSNRSRAINVPPRVTVLPKSRVELGQPNILICIVDNIFPPVINITWLRNGQTVTEGVAQTSFYSQPDHLFRKFHYLPFVPSAEDVYDCQVEHWGLDAPLLRHWELQVPIPPPDAME
MHC II beta: TDSPEDFVIQAKADCYFTNGTEKVQFVVRFIFNLEEYVRFDSDVGMFVALTKLGQPDAEQWNSRLDLLERSRQAVDGVCRHNYRLGAPFTVGRKVQPEVTVYPERTPLLHQHNLLHCSVTGFYPGDIKIKWFLNGQEERAGVMSTGPIRNGDWTFQTVVMLEMTPELGHVYTCLVDHSSLLSPVSVEWRAQSEYSWRK
notes: HLA-DO alpha chain, ectodomain; HLA-DO beta chain, ectodomain; Also used after pH 4.6 pulses and SEC isolation of the intact portion (assay a3); also called soluble DOv; source: recombinant, expressed and purified alone
B2: in assay [8], the “fold increase of KD,app from pH 7.2 to pH 4.7” value is greater than 10 fold.

B3: wild type HLA-DO ectodomain (DOwt) of the DM-DOwt complex (complex, human)
MHC II alpha: TKADHMGSYGPAFYQSYGASGQFTHEFDEEQLFSVDLKKSEAVWRLPEFGDFARFDPQGGLAGIAAIKAHLDILVERSNRSRAINVPPRVTVLPKSRVELGQPNILICIVDNIFPPVINITWLRNGQTVTEGVAQTSFYSQPDHLFRKFHYLPFVPSAEDVYDCQVEHWGLDAPLLRHWELQVPIPPPDAME
MHC II beta: TDSPEDFVIQAKADCYFTNGTEKVQFVVRFIFNLEEYVRFDSDVGMFVALTKLGQPDAEQWNSRLDLLERSRQAVDGVCRHNYRLGAPFTVGRKVQPEVTVYPERTPLLHQHNLLHCSVTGFYPGDIKIKWFLNGQEERAGVMSTGPIRNGDWTFQTVVMLEMTPELGHVYTCLVDHSSLLSPVSVEWRAQSEYSWRK
notes: HLA-DO alpha chain, ectodomain; HLA-DO beta chain, ectodomain; For BLI the DM-DOwt complex was biotinylated; also called wild type DO; source: recombinant, purified in complex with DM (double SEC-purified DM-DO ectodomains)
For the molecule B3, the binding result in [9] is “binds”.

B4: biotinylated stabilized HLA-DO variant ectodomain (alpha P11A) (domain or fragment, human)
MHC II alpha: TKADHMGSYGAAFYQSYGASGQFTHEFDEEQLFSVDLKKSEAVWRLPEFGDFARFDPQGGLAGIAAIKAHLDILVERSNRSRAINVPPRVTVLPKSRVELGQPNILICIVDNIFPPVINITWLRNGQTVTEGVAQTSFYSQPDHLFRKFHYLPFVPSAEDVYDCQVEHWGLDAPLLRHWELQVPIPPPDAME
MHC II beta: TDSPEDFVIQAKADCYFTNGTEKVQFVVRFIFNLEEYVRFDSDVGMFVALTKLGQPDAEQWNSRLDLLERSRQAVDGVCRHNYRLGAPFTVGRKVQPEVTVYPERTPLLHQHNLLHCSVTGFYPGDIKIKWFLNGQEERAGVMSTGPIRNGDWTFQTVVMLEMTPELGHVYTCLVDHSSLLSPVSVEWRAQSEYSWRK
modifications: biotin on the C-terminal avitag (BirA)
notes: HLA-DO alpha chain, human, ectodomain; HLA-DO beta chain, human, ectodomain; Same construct as Dm2, biotinylated and held on streptavidin biosensors in BLI; also called bio-DOv; biotinylated DOv
B4: the Kd was found to be 26.9 nM in [10], 233 nM in assay [11], 17 nM in [12] and 11.3 nM in [13].

The values above are taken from paper PMC4661524 (Scientific Reports, 2015).
